Data published in PMC8546545.

What was measured:
[1] = molecular target: OdhI (Oxoglutarate dehydrogenase Inhibitor), FHA substrate of PknG (Corynebacterium glutamicum) (UniProt Q8NQJ3)
[2] = molecular target: OdhI (Oxoglutarate dehydrogenase Inhibitor), FHA substrate of PknG (Corynebacterium glutamicum) (UniProt Q8NQJ3); remark: listed apart in the source

Sequence of UniProt Q8NQJ3 (Q8NQJ3 whole entry): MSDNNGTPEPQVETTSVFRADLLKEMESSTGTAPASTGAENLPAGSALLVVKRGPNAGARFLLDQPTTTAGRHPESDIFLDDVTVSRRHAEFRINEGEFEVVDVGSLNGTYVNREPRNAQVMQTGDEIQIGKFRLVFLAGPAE

| Substance | kinase activity ([γ-32P]ATP) against OdhI compared to the full-length enzyme (phosphorylation of the 17-mer peptide unaffected) [1] [fold lower] | kinase activity ([γ-32P]ATP) of CgPknG toward OdhI (25 μM) compared with the 17-mer peptide substrate lacking an FHA domain (330 μM) [2] [fold] |
| --- | --- | --- |
| CgPknG deletion mutant lacking residues 1 to 129 and 434 to 822 (domain or fragment) | 7 | – |
| Ser/Thr protein kinase PknG from Corynebacterium glutamicum, full length (enzyme) | – | 45 |
